Results on 12 molecules are retold here after patent publication US20250034594A1, “RNA-GUIDED GENOME RECOMBINEERING AT KILOBASE SCALE” (THE BOARD OF TRUSTEES OF THE LELAND STANFORD JUNIOR …, priority 2021, published 2025).

Assay type in all cases: cell-based
One assay has as its system gene editing with Cas9. Nature of the assay: Screen of 322 new SSAP proteins, gene editing activity with Cas9 (Table 5). More on the design: Cas9 with SSAP activity: scale not given here. The method in brief: (§1)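 The 322 SSAP proteins were found in sequence data and then synthesized. Each was screened for gene editing activity when paired with Cas9 and with dCas9.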
The next assay has as its system gene editing with dCas9. Nature of the assay: Screen of 322 new SSAP proteins, gene editing activity with dCas9 (Table 5). More on the design: dCas9 with SSAP activity: scale not given here. The method in brief: as §1
Assay [1] has as its system gene editing with Cas9 and dCas9. Nature of the assay: Screen of 322 new SSAP proteins, activity across all experiments (Cas9 and dCas9, Table 5). Further details: scale not given here. The method in brief:
as §1

B1: SSAP_94: SEQ ID NO: 263; Providencia alcalifaciens (protein, listed as Providencia alcalifaciens)
chain: STPPLAKSDLQKTQGTEVKIKTNEQKLVEFINQPGMKAQLAAALPKHITSDRMIRIVSTEIRKTPSLANCDIQSFIGAVVQCSQLGLEPGNALGHAYLLPFGNGKSDNGQQNVQLIIGYRGMIDLARRSGQIISISARTVRQGDNFHFEYGLNENLTHIPEGNEDSPITHVYAVARLKDGGVQFEVMTYNQIEKVRNLSKAGKNGPWVTHWEEMAKKTVIRRLFKYLPVSIEMQKAVILDEKAEANIEQEHSAIFEAEFEEVDSNGN
As to B1, in the assay with gene editing with Cas9, the “Cas9 with SSAP activity” value is recorded as −0.340 and the “Cas9 with SSAP activity (normalized)” value is given as −0.087. In the assay on gene editing with dCas9, the “dCas9 with SSAP activity” value is −7.000 and the “dCas9 with SSAP activity (normalized)” value is −1.112. Also, the “Activity across all experiments” value in assay [1] was −3.670.

B2: SSAP_88: SEQ ID NO: 257; Raoultella planticola (protein, listed as Raoultella planticola)
chain: TKQPPIAKADLQKTQGTRVSSPKGNNDVISFINQPSMKEQLAAALPRHMTAERMIRIATTEIRKVPALASCDTMSFVSAIVQCSQLGLEPGGALGHAYLLPFGNKNEKSGKKNVQLIIGYRGMIDLARRSGQIASLSARVVREGDEFSYEFGLEEKLTHRPGENEDAPVTHVYAVARLKDGGTQFEVLTSKQIELVRSQSKAANSGPWVTHWEEMAKKTAIRRLFKYLPVSIEIQRAVSIDEKEALTIDPADTSVLTGEYSVINSESEE
Consider B2, for which, in the assay on gene editing with Cas9, the “Cas9 with SSAP activity” value is listed as −2.144 and the “Cas9 with SSAP activity (normalized)” value is given as −1.524. Besides, in the assay on gene editing with dCas9, the “dCas9 with SSAP activity” value is reported as −6.933 and the “dCas9 with SSAP activity (normalized)” value is listed as −1.193. Moreover, the “Activity across all experiments” value in assay [1] was −4.539.

B3: SSAP_311: SEQ ID NO: 480; Paenibacillus graminis (protein, listed as Paenibacillus graminis)
chain: TVAIETQVQETLDRILDSKHDALPSDFKKKRFSENCKVYVAEEKDLHKYTIDDIVANLFKGAVLGLDFLAKECHLITGGVDLKFQTDYKGEMKLTKKYSVRPMLDVYAKNVREGDIFREQIIEGRPAIHFDPLPFNASKIIGSFAIALFQDGGMVYESIPAGEIEEIRKNYGKSLGDAWEKSQGEMYKRTVLRRLCKTIETDFDAEQRLIYEMGGAFEFTKQPTRSRQQSPFNPPEESEVIQNDRAAETDQG
Turning to B3, in the assay with gene editing with Cas9, the “Cas9 with SSAP activity” value was −6.123 and the “Cas9 with SSAP activity (normalized)” value is −0.874. Further, in the assay on gene editing with dCas9, the “dCas9 with SSAP activity” value is −7.375 and the “dCas9 with SSAP activity (normalized)” value is given as −1.526. For the same molecule, the “Activity across all experiments” value in assay [1] was −6.749.

B4: SSAP_63: SEQ ID NO: 232 (protein)
chain: SELQQAAQGQADAGPVQVIYSHAKEIQNVLAKGTDMDRWLQMARLAVMRDPNLVNAAKRDPGSLMQAMLDCAEKGHIPGTEDYYLVPRKGGIQGMESWKGIAKRIMRSGRYQSIVAEVVYEGEDFDFNPNTMDRPVHQIKYMARTSGQPVLSYAYAVDHEGKPSTIAVADPRYIAKVKANSKGTVWADWDEAMYKKTAVKMLVDYVDTSSTDRRGVSTVQVDGPVGTFIDGVLEIEGGDQ
In the case of B4, in the assay with gene editing with Cas9, the “Cas9 with SSAP activity” value worked out at 0.570 and the “Cas9 with SSAP activity (normalized)” value stood at 2.381. In addition, in the assay with gene editing with dCas9, the “dCas9 with SSAP activity” value is −7.424 and the “dCas9 with SSAP activity (normalized)” value was −1.335. In addition, in assay [1], the “Activity across all experiments” value is recorded as −3.427.

B5: SSAP_322: SEQ ID NO: 491; Candidatus Dependentiae bacterium (protein)
chain: CHVLNFQTDYKGEIKLAHKYSVRKIIDIYAKVVRDGDVLEIRVENGSQIVNFNPKVFNDGKIIGAFAVVKFVDGSLLYETMSKSEIDHTRVTFSKMPNGMAWKDSEGEMCRKTVLRRICKLIDLHFDSVEQEQAWNDGSDADLTKNEPVKPEIQNPFPTKAVEAVIVTEEEKLRKQLKDKDPTLQDWQIDALVREHKEANQ
modifications: Candidatus Dependentiae bacterium
For B5, in the assay with gene editing with Cas9, the “Cas9 with SSAP activity” value worked out at 0.287 and the “Cas9 with SSAP activity (normalized)” value was 0.247. Besides, in the assay with gene editing with dCas9, the “dCas9 with SSAP activity” value is given as 0.082 and the “dCas9 with SSAP activity (normalized)” value was 0.048. The “Activity across all experiments” value in assay [1] came to 0.184.

B6: SSAP_79: SEQ ID NO: 248 (protein)
chain: EALLLRRWQMGNLTKTTGFALAPQNLEQAMQLATMICNSQLAPNNYKGKPEDTLVAMMMGHELGLNPLQSIQNIAVINGRPSIYGDALLALVQNSPAFGGIQESFDEDTMTATCTVWRKGGEKHTQHYSKDDADTAGLWGKQGPWKQHPKRMLAMRARGFAVRNQFADALAGLVTREEAEDMEKEINPTPAPQAQSKRIGQKQSRTQYSESDFNENFPKWKAAVESGKKTSEQIISMVSTKGDLTQGMIEAIESIEAGEPA
Regarding B6, in the assay with gene editing with Cas9, the “Cas9 with SSAP activity” value is −1.629 and the “Cas9 with SSAP activity (normalized)” value is reported as −2.086. Besides, in the assay on gene editing with dCas9, the “dCas9 with SSAP activity” value is on record as −7.349 and the “dCas9 with SSAP activity (normalized)” value is listed as −2.203. For the same molecule, the “Activity across all experiments” value in assay [1] was −4.489.

B7: SSAP_144: SEQ ID NO: 313; Romboutsia weinsteinii (protein, listed as Romboutsia weinsteinii)
chain: TNLKNTLKNKEAKGNNLAINPSYAMKQLMIKMKGEITSALPKELCSERFQRVALTAFNSNPKLQNCAPMTFIAAMMQSDQLGLEPNTPLGQAYLIPYKVKGIDKVQFQIGYKGLLELAHRSGRLKTLYAHEVRENDEFDIDYGLEQRLIHKPLLKGNRGEVIGYYAVYHLEHNGYSFVFMTYDEVLEHGKKYSKSFEGGIWEKEFDSMAKKTVIKKLLKYAPLSIEIQKAINFDESVKGSIDSDMLLVDKADESIDVEGNVLNQRGIKYGCI
Regarding B7, in the assay on gene editing with Cas9, the “Cas9 with SSAP activity” value is reported as −2.249 and the “Cas9 with SSAP activity (normalized)” value is reported as −0.663. For the same molecule, in the assay with gene editing with dCas9, the “dCas9 with SSAP activity” value is recorded as −7.293 and the “dCas9 with SSAP activity (normalized)” value is given as −1.765. The “Activity across all experiments” value in assay [1] is −4.771.

B8: SSAP_161: SEQ ID NO: 330; Solobacterium moorei (protein, listed as Solobacterium moorei)
chain: TEIKAAKAPATVAKAGVSTQNKTIKDYITIMKPEIEKALPSTITPERFTRITLSAVSNNPKLQACSPSTFLSAMMQSAQLGLEPNTPLGQAYLIPYGNSCQFQLGYKGLLQLAYNSGQIKTIRTETVYENDEFKYELGLHSDLVHVPAMSNRGNPTAYYAVIEYTNGGYGFEVMSHDDVLEHAKKFSKTFNNGPWQSDFESMAKKTVLKQALKYAPLSTELVSKINTDETVKSSISDHMEEVKNDIDLSQIIDAETGEIHE
With B8, in the assay on gene editing with Cas9, the “Cas9 with SSAP activity” value was −1.623 and the “Cas9 with SSAP activity (normalized)” value is listed as −0.850. Besides, in the assay on gene editing with dCas9, the “dCas9 with SSAP activity” value was −0.092 and the “dCas9 with SSAP activity (normalized)” value is −0.051. The “Activity across all experiments” value in assay [1] was −0.857.

B9: SSAP_131: SEQ ID NO: 300; Thermoclostridium stercorarium (protein, listed as Thermoclostridium stercorarium)
chain: TTVNQTELKNKLAEKAKTPAKTGNTVFDLIRKMEPEIKRALPKQISPERFARIAMTAVRNTPKLQACEPISFIAALMQSAQLGLEPNTPLGQAYLIPYGKEVQFQLGYQGMLTLAYRTGEYQSIYAMPVYANDEFEYEYGLNEKLVHKPAPDPEGEPIYYYAVYKLKNGGHGFVVMSRQQIERHRDKYSPSAKQGKFSPWNTDFDSMAKKTVLKQLLKYAPKSVEFATQIAQDETIKTEIAEDMTEVQGIEVEYEATDDQENQENQEQED
For the molecule B9, in the assay on gene editing with Cas9, the “Cas9 with SSAP activity” value is −1.273 and the “Cas9 with SSAP activity (normalized)” value is on record as −0.894. For the same molecule, in the assay with gene editing with dCas9, the “dCas9 with SSAP activity” value is −7.001 and the “dCas9 with SSAP activity (normalized)” value is on record as −0.946. For the same molecule, the “Activity across all experiments” value in assay [1] is recorded as −4.137.

B10: SSAP_149: SEQ ID NO: 318; unclassified Oscillibacter (protein, listed as Oscillibacter sp.)
chain: KEGLIQGTQSAQAAKKGPATMQDYIKKMQGEIAKALPSVLTPERFTRITLSALSTNPKLAQTTPKSFLGAMMTAAQLGMEPNTPLGQAYLIPFKNHGVLECQFQLGYKGLIDLAYRSGEVSTIQAQTVYENDEFEYELGLEPKLHHVPAKGERGEPVYFYAVFRTKDGGYGFEVMSVDDVRTHAKKYSKAYSNGPWQTNFEEMAKKTVLKKALKYAPLKTEFMRGLTSDETIKTEISEDMYSVPDETVIEAEGYEVDGDTGEVIERPADGQ
Take B10: in the assay on gene editing with Cas9, the “Cas9 with SSAP activity” value is given as −1.833 and the “Cas9 with SSAP activity (normalized)” value was −2.092. In addition, in the assay with gene editing with dCas9, the “dCas9 with SSAP activity” value is −6.999 and the “dCas9 with SSAP activity (normalized)” value is on record as −1.192. The “Activity across all experiments” value in assay [1] was −4.416.

B11: SSAP_80: SEQ ID NO: 249 (protein)
chain: GHLVSKTEQDYIKQHYAKGATDQEFEHFIGVCRARGLNPAANQIYFVKYRSKDGPAKPAFILSIDSLRLIAHRTGDYAGCSEPIFTDGGKACTVTVRRNLKSGETGNFSGMAFYDEQVQQKNGRPTSFWQSKPRTMLEKCAEAKALRKAFPQDLGQFYIREEMPPQYDEPIQVHKPKALEEPRFSKSDLSRRKGLNRKLSALGVDPSRFDEVATFLDGTPDRELGQKLKLWLKEAGYGVNQ
Regarding B11, in the assay on gene editing with Cas9, the “Cas9 with SSAP activity” value was −3.757 and the “Cas9 with SSAP activity (normalized)” value is given as −0.629. In addition, in the assay with gene editing with dCas9, the “dCas9 with SSAP activity” value is recorded as −7.200 and the “dCas9 with SSAP activity (normalized)” value was −1.353. The “Activity across all experiments” value in assay [1] is given as −5.479.

B12: SSAP_297: SEQ ID NO: 466; Dysgonomonas capnocytophagoides (protein)
chain: STQQVQQQTKPLSLANFLNAPSTANFLKETLAEKKSEFVSNLIALCDADPKLAQCDPAQLMKCAMNATSLNLPLNKNLGYAYVIAYKGVPSFQIGYKGLIQLAIRTGQYKFINATEIREGEIRHNKITGEVIFNGEKPDAPIVGYMSYLELVNGFTASLYMTEEQIEQHALRFSQTYKNDKQYRSSTSKWSDPLARPTMCKKTVLKLLLGTYGLMTTEFAKALDSDSDDEVSTSGHRFEEAEIVQQGEPNEEQSDEPKRMEI
modifications: Dysgonomonas capnocytophagoides
B12: in the assay on gene editing with Cas9, the “Cas9 with SSAP activity” value is −5.364 and the “Cas9 with SSAP activity (normalized)” value is given as −1.014. Further, in the assay on gene editing with dCas9, the “dCas9 with SSAP activity” value is −7.184 and the “dCas9 with SSAP activity (normalized)” value was −1.057. Moreover, the “Activity across all experiments” value in assay [1] was −6.274.
